As a reminder, the koff is the rate constant with which the complex falls apart. For orientation: EC50 means the concentration giving half of the maximal effect. What is called IC50 is the point on the concentration scale where inhibition reaches its midpoint. In general, % inhibition refers to the relative decrease from the control value, in per cent. In general, Kd refers to the equilibrium constant for the complex coming apart. Higher therefore signals lower affinity. A word on the kon: it is a measure of how fast the partners come together. Low readings indicate slow association, high ones fast association.

Experimental findings from patent US20130136748A1 (Ablynx, published 2013) are described below.

Experiment [1] concerns the target T1, hHER3 ECD (human HER3 extracellular domain) (human, UniProt P21860 20-643).
T1 construct: also called recombinant HER3-ECD
The experiment in a line: SPR off rate on HER3-ECD.

Experiment [2] addresses T2, hHER3 full length (human, UniProt P21860 20-1342).
T2 construct: On transfected CHO, CHO HER2/HER3, CHO EGFR/HER3 or CHO Flp-In cells; endogenous HER3 of MCF-7 and MDA-MB468 cells in the signalling assays; also called human HER3
The experiment in a line: FACS, 400 nM, competitor 17C08-biotin. (In general: Flow cytometry measures light scatter and fluorescence of single cells or particles in a stream.)

Experiment [3] concerns the target T2, hHER3 full length. The experiment in a line: FACS, 400 nM, competitor 23F05-biotin.
Experiment [4] addresses T2, hHER3 full length. The experiment in a line: FACS, 400 nM, competitor 04C07-biotin.
For experiment [5], the target named is T2, hHER3 full length. As to the kind of experiment: cell-based or functional assay.
The target of experiment [6] is T3, cHER3ECD (Maccaca fascicularis HER3 extracellular domain) (Macaca fascicularis, UniProt P21860 20-643 (human entry)).
T3 construct: also called cyno HER3ECD; cyno HER3-ECD
T3 chain: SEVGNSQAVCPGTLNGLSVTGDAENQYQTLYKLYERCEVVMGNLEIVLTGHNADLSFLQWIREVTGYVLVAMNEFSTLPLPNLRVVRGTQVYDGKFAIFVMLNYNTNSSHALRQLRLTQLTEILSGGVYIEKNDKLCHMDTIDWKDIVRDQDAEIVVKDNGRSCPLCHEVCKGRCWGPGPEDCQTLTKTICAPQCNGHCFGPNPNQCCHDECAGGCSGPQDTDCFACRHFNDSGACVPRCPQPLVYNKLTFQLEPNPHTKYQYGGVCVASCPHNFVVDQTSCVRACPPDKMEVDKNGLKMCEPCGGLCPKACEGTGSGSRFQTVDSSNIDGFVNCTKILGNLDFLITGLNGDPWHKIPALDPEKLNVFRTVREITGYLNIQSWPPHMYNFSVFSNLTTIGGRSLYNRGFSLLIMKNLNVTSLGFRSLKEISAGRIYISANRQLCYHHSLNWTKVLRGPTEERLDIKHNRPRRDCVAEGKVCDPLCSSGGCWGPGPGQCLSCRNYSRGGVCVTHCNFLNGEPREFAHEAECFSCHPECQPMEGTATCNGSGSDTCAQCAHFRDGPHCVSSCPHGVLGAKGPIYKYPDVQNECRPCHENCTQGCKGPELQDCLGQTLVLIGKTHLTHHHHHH
As to the kind of experiment: ELISA, coated cHER3-ECD. Background: In an ELISA, binding on a coated surface is turned into a signal by an enzyme label.

For experiment [7], the target named is T1, hHER3 ECD (human HER3 extracellular …). The experiment in a line: ELISA, coated hHER3-ECD.
For experiment [8] the target is unchanged. As to the kind of experiment: off rate on recombinant HER3-ECD, periplasmic extract.
The target of experiment [9] is T2, hHER3 full length. The experiment in a line: cell-based or functional assay. This is another data set of the same source.
Experiment [10] concerns the target T2, hHER3 full length. The experiment in a line: FACS, 400 nM, competitor 21B02-biotin.
Experiment [11] deals with T4, human HER3-Fc (R&D Systems, 348-RB) (human, UniProt P21860 20-643).
T4 construct: Bought; also called hHER3-Fc; Fc-HER3; Fc part of the bought chimera not given, not described
The experiment in a line: 34C07 competition alphascreen.

In experiment [12] the target is T2, hHER3 full length. As to the kind of experiment: FACS, 400 nM, competitor 18E08-biotin.
Experiment [13] deals with T2, hHER3 full length. As to the kind of experiment: cell-based or functional assay. The source holds these as a separate data set.
For experiment [14], the target named is T2, hHER3 full length. As to the kind of experiment: FACS, 400 nM, competitor 04F10-biotin.
The target in experiment [15] is T4, human HER3-Fc (R&D Systems, 348-RB). As to the kind of experiment: HRG competition alphascreen. For orientation: Bead proximity is the source of the signal in Alpha formats.
Experiment [16] has the same target. As to the kind of experiment: SPR, HER3-Fc captured; heterogenous curve, main interaction (84%).

Values joined by “and” are separate entries in the source; they are usually repeats but may differ in a detail not shown here. Equal entries are not always repeated.

B1: 34C07 (VHH)
VHH: EVQLVESGGGLVQPGGSLGLSCVASGSIFRINAMAWYRQAPGKQRELVAEITAGGSTNYADSVKGRFTISVDNAWNTLYLQMNSLKVEDTAVYYCNLDHYTTWDRRSAYWGQGTQVTVSS
notes: c-myc, His6-tagged form as expressed; also called 34C7; HER3MS34C07
Take B1: the koff in experiment [1] is 0.0003 s⁻¹ and 0.00031 s⁻¹; in experiment [8] it was 0.00037 s⁻¹ and 0.00039 s⁻¹. The “% competition” value with hHER3 full length [2] worked out at 56%; in the experiment with hHER3 full length [3], 10%; with hHER3 full length [4], 0%; with hHER3 full length [10] it was 6%; with hHER3 full length [12] it was 99%; in the experiment with hHER3 full length [14], 0%. For the same molecule, the “IC50, HRG1-β1 induced pAkt, MCF-7” value with hHER3 full length [5] was found to be 4.99e-08 M. Moreover, the “IC50, HRG1-β1 induced pERK1/2, MCF-7” value with hHER3 full length [5] amounted to 1e-07 M. Besides, the EC50 in experiment [6] stood at 0.43 nM; in [7] it was 0.46 nM. In the experiment with hHER3 full length [9], the “IC50, HRG1-β1 induced pHER3, MCF-7” value was determined as 1.89e-08 M. For the same molecule, the “IC50, HRG1-β1 induced pHER3, MDA-MB468” value with hHER3 full length [9] came to 1.07e-08 M. The values for the IC50 in experiment [11] and in experiment [15] were 5.5 nM and 0.815 nM, respectively. Also, the “IC50 pHER3 blocking, MCF7” value in the experiment with hHER3 full length [13] was 2.49e-08 M. The “% inhibition” value in [15] turned out to be 65.2%. The molecule further came in with a Kd in [16] of 14 nM. For the same molecule, in experiment [16], the kon was determined as 18000 M⁻¹ s⁻¹.
